Test [1] has as its target T1, human IGSF11 (VSIG3) ECD, His-tagged (human, UniProt Q5DX21 23-241).
T1 construct: in part bought (SinoBiological 13094-H08H); also called HIS-IGSF11; IGSF11-HIS; not shown: His tag
T1 sequence: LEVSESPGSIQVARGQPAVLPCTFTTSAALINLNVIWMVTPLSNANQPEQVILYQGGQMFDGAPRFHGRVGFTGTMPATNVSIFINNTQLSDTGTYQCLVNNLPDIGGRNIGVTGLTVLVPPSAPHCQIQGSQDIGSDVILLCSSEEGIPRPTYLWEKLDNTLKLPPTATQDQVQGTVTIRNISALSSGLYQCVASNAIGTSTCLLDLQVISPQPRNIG
The test is described as follows: IgG1 ELISA EC50 0.02-0.05 nM. (In general: ELISA stands for enzyme-linked immunosorbent assay.)

The target of test [2] is T2, IgC2 domain of human IGSF11 fused to murine IgG2a Fc (human, UniProt Q5DX21 137-241).
T2 construct: not shown: murine IgG2a Fc-region
T2 sequence: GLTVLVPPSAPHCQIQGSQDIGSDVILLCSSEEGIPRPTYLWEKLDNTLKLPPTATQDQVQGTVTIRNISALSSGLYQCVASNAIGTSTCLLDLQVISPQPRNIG
The test is described as follows: IgG ELISA.

Test [3] concerns the target T3, full-length ECD of human IGSF11 fused to murine Fc (human, UniProt Q5DX21 23-241).
T3 construct: also called Fc-fusion IGSF11 ECD; not shown: murine Fc
T3 sequence: T1 sequence
The test is described as follows: IgG ELISA.

The target of test [4] is T4, human IGSF11 (VSIG3) expressed on cells (human, UniProt Q5DX21 23-431).
T4 sequence: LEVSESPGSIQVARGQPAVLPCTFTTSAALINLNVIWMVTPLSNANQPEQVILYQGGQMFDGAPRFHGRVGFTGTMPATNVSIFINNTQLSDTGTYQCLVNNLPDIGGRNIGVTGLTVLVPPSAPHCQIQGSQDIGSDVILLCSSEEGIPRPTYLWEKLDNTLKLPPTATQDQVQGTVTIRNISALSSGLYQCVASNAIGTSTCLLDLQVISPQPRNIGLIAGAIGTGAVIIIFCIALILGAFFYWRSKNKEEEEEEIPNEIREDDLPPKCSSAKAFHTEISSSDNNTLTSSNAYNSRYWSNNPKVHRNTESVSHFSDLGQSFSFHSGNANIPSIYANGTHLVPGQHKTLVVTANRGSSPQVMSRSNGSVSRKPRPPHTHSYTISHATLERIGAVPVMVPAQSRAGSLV
The test can be described thus: IgG1 FACS HEK-OE.

In the next test the target is Streptavidin (UniProt P22629 37-163, limits assumed). The test is described as follows: Fab ELISA.
Streptavidin, sequence (P22629 37-163 limits assumed): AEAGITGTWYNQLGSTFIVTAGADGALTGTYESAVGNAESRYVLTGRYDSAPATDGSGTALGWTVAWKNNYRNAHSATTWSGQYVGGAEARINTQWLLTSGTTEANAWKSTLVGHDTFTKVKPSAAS
In test [5] the target is T5, ECD of murine IGSF11, recombinant biotinylated (mouse, UniProt P0C673 23-240).
T5 construct: whole entry named; also called Mouse IGSF11
T5 sequence: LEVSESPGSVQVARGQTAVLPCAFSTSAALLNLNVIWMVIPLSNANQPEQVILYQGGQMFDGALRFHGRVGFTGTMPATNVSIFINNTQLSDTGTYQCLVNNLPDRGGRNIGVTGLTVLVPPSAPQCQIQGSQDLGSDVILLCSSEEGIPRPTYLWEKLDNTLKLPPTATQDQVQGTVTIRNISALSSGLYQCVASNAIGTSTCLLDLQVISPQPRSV
The test is described as follows: Fab ELISA.
Procedure: (§1) In order to identify IGSF11-specific binding ABPs, monoclonal Fabs expressed from E. coli were generated from the enriched set of anti-IGFS11 antibody-expressing phage. After bacterial lysis, the Fabs were tested for their binding properties and cross-reactivity profile on recombinant ECD-IGSF11 (human, mouse and cynomolgus monkey) by standard ELISA. Briefly, biotinylated recombinant ECD-IGSF11 from human, mouse, or cynomolgus monkey were immobilized at 2 ug/mL on a streptavidin-coated 384-well Maxisorp plate. The surface was blocked with 2% (w/v) skim milk powder in PBST. After three wash cycles with PBST, a bacterial lysate of each of the anti-IGSF11 Fabs in 2% (w/v) skim milk powder was applied to the immobilized IGSF11 and incubated for 1 h. After removing all unbound Fab by 3 wash cycles with PBST, bound Fab antibodies were detected with a goat anti-human Fab antibody conjugated with horseradish peroxidase. After three wash cycles with PBST the ELISA was developed with TMB substrate.

The target in test [6] is T6, extracellular domain (ECD) of human IGSF11 (VSIG3), recombinant (human, UniProt Q5DX21 23-241).
T6 construct: biotinylated where captured on streptavidin; tags of the reagent not always stated; also called IGSF11 (ECD domain); ECD-IGSF11
T6 sequence: T1 sequence
The test can be described thus: Fab ELISA.
Procedure: as §1

Test [7] addresses T7, ECD of cynomolgus monkey IGSF11, recombinant biotinylated (cynomolgus monkey, UniProt Q5DX21 23-241 (human entry)).
T7 construct: whole entry named
T7 chain: T1 sequence with P17T, I83V, A185T, S187T
The test can be described thus: Fab ELISA.
Procedure: as §1

Test [8] has as its target T1, human IGSF11 (VSIG3) ECD, His-tagged. The test can be described thus: blocking ELISA: VSIR-Fc immobilised, IgG dilution series pre-incubated with 200 nM IGSF11 ECD-His, bound IGSF11 detected with anti-His-HRP.
Test [9] has the same target. The test can be described thus: ELISA: IGSF11-HIS coated, IgG1 dilution series, anti-human antibody-HRP, TMB.
Test [10] deals with T4, human IGSF11 (VSIG3) expressed on cells. The test can be described thus: IgG1 FACS DMS 273.
Test [11] concerns the target T1, human IGSF11 (VSIG3) ECD, His-tagged. The test can be described thus: IgG1 ELISA EC50 <0.02 nM.
Test [12] concerns the target T8, murine IGSF11 expressed on cells (mouse, UniProt P0C673 23-428).
T8 construct: MC38-IGSF11, CT26-IGSF11, MC38-wt (naturally expresses murine IGSF11)
T8 sequence: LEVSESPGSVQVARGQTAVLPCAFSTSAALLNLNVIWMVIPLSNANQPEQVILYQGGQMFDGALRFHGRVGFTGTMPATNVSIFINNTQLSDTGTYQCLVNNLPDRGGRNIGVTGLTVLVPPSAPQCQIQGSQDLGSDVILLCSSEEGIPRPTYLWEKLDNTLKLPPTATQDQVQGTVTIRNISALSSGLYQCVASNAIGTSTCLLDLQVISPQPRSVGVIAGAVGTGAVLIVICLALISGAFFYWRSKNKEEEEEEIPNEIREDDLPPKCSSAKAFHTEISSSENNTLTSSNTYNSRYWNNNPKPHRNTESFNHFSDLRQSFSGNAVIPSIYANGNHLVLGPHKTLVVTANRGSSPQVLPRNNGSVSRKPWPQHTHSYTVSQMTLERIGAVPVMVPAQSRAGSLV
The test can be described thus: IgG FACS CT26-IGSF11.
Source text: (§2) Unbound antibodies were removed by washing the cells three time with FACS buffer. Bound antibodies were detected with a mouse anti-human IgG antibody conjugated with AlexaFluor647.

The target of test [13] is T8, murine IGSF11 expressed on cells. The test is described as follows: IgG FACS MC38-IGSF11.
Source text: as §2
For test [14], the target named is T3, full-length ECD of human IGSF11 fused …. The test is described as follows: IgG ELISA. This is another data set of the same source.
Procedure: Binding of IgG antibodies to each of the full-length ECD of IGSF11, to the IgV domain of IGSF11 and to the IgC2 domain of IGSF11, was tested in the ELISA assay as follows: briefly, recombinant domains of Fc-fusion IGSF11 proteins were coated at 2 ug/mL on a 384-well Maxisorp plate. The surface was blocked with 2% (w/v) skim milk powder in PBST. […] After removing all unbound antibodies by 3 wash cycles with PBST, bound IgG ABPs were detected with a goat anti-human IgG antibody conjugated with horseradish peroxidase. After three wash cycles with PBST the ELISA was developed with TMB substrate.
Test [15] has as its target T9, IgV domain of human IGSF11 fused to murine IgG2a Fc (human, UniProt Q5DX21 23-143).
T9 construct: not shown: murine IgG2a Fc-region
T9 sequence: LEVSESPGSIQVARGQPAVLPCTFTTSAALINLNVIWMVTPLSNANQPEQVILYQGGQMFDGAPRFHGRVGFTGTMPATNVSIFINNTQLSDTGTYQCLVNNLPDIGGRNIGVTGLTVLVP
The test can be described thus: IgG ELISA.

In test [16] the target is T4, human IGSF11 (VSIG3) expressed on cells. The test can be described thus: IgG FACS MDA-MB-231-IGSF11.
Source text: as §2

Where a chain is given by its changes, count along the chain named. Like-named read-outs stand apart in the source and are kept apart here.

Broadly, the EC50 is the concentration needed to bring the measured effect to its halfway point. A word on the EC50 (read off the curve): it is the concentration giving half of the maximal effect.

Procedure for Streptavidin: as §1

B1: A-035 (IgG1 format) (antibody, V domains shown)
VH: QVQLVQSGAEVKKPGASVKVSCKASGYTFTGYYMHWVRQAPGQGLEWMGWINPNSGNTGYAQKFQGRVTMTRNTSISTAYMELSSLRSEDTAVYYCARGRLERGYWYFDLWGRGTLVTVSS
VL: NFMLTQPHSVSESPGRTVTISCTRSSGSITSNYVQWYQQRPGSAPTILIYEDKERPSEVPDRFSGSIDISSNSASLTISGLKTEDEADYYCQSYGGTSQGVLFGGGTKVTVL
notes: human IgG1 format
As for B1, the EC50 in [1] is 0.02 to 0.05 nM; in [2] it was 20 to 100 nM; in [3], 1 to 20 nM; in [4], over 50 nM.

B2: C-004 (Fab format) (Fab, V domains shown)
VH: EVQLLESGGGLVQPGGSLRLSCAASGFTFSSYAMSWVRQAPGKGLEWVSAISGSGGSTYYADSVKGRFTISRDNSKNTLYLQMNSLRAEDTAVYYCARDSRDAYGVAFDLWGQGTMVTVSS
VL: ASVLTQPPSVSAAPGQKVTISCSGSSSNIGNNYVSWYQQLPGTAPKLLIYDNNKRPSGIPDRFSGSKSGTSATLGITGLQAEDEADYYCLTWTGAGRIFVFGGGTKLTVL
notes: Fab from E. coli lysate
In the case of B2, the A450 with Streptavidin was under 0.1; in [5], under 1; in test [6] it was under 1; in [7] it was under 1.

B3: B-004 (chain-swapped IgG1) (antibody, V domains shown)
VH: EVQLLESGGGLIQPGGSLRLSCAVSGFTVSSNYMSWVRQAPGKGLEWVSVIYSGGSTYYADSVKGRFTISRDNSKNTLYLQMNSLRAEDTAVYYCARGNPYYYGDLQVNFDYWGQGTLVTVSS
VL: QAVVTQEPSLTVSPGGTVTLTCASSTGAVTSGYYPNWFQQKPGQAPRPLIYSTSNKHSWTPARFSGSLLGGKAALTLSGVQPDDEAEYYCLLYYGGDWVFGGGTKLTVL
notes: human IgG1 format; also called B4
With B3, the “IC50 (read off the curve)” value in [8] is about 5 nM. For the same molecule, the “EC50 (read off the curve)” value in [9] was about 0.02 nM.

B4: B-006 (chain-swapped IgG1) (antibody, V domains shown)
VH: B3 VH with L5V, V24A
VL: B3 VL with G16E, K41R, P48A, H57D, D83E, D97A
notes: human IgG1 format; also called B6
Regarding B4, the “IC50 (read off the curve)” value in test [8] is about 5 nM. Also, the “EC50 (read off the curve)” value in test [9] is about 0.02 nM.

B5: B-008 (chain-swapped IgG1) (antibody, V domains shown)
VH: B3 VH with L5V, V24A
VL: B3 VL with L20P, A23G, Y33N, Y34L, P48A, F64I, D83E, D97A
notes: human IgG1 format; also called B8
Regarding B5, in test [8], the “IC50 (read off the curve)” value is about 4 nM.

B6: B-007 (chain-swapped IgG1) (antibody, V domains shown)
VH: B3 VH with L5V, V24A
VL: B3 VL with G32A, P48A, D83E, E87D, D97A
notes: human IgG1 format; also called B7
In the case of B6, the “IC50 (read off the curve)” value in test [8] is about 3 nM. The “EC50 (read off the curve)” value in [9] was about 0.01 nM.

B7: A-022 (IgG1 format) (antibody, V domains shown)
VH: EVQLLESGPGLVKPSQTLSLTCTVSGGSISSGGYYWSWIRQHPGKGLEWIGYIYYSGSTYYNPSLKSRVTISVDTSKNQFSLKLSSVTAADTAVYYCARASRSTDYYFDYWGQGTLVTVSS
VL: QPGLTQPPSMSYGLGQTATLTCTGNRNNIGDQGAAWLQQHQGHPPKLLSYRNNNGPSGISERLSASRSGNTASLTISGLQPEDEADYYCSAWDSSLRAWVFGGGTKLTVL
notes: human IgG1 format
On to B7, for which the EC50 in test [10] was 10 to 50 nM; in test [11], under 0.02 nM; in test [2] it was under 1 nM; in test [3], under 1 nM; in test [4] it was 10 to 50 nM.

B8: C-017 (IgG1 format) (antibody, V domains shown)
VH: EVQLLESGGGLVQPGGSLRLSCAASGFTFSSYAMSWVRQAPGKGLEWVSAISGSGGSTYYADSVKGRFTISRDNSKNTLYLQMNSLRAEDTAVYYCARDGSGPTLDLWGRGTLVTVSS
VL: DIQMTQSPSSLSASVGDRVTITCRASQSISSYLNWYQQKPGKAPKLLIYAASSLQSGVPSRFSGSGSGTDFTLTISSLQPEDFATYYCQQHRYIPPWTFGQGTKVEIK
Turning to B8, the EC50 lay in the range of 20 to 50 nM in [12]; 50 to 100 nM in test [13]; 1 to 20 nM in test [14]; 1 to 20 nM in test [15]; 15 to 25 nM in test [16].

B9: C-019 (Fab format) (Fab, V domains shown)
VH: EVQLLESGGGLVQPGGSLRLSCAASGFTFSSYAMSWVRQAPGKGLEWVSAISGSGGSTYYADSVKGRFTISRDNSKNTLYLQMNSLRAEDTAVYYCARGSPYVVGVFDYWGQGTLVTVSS
VL: B8 VL with H91W, R92Q, Y93H, I94E, W97Y
notes: Fab from E. coli lysate
Regarding B9, the A450 with Streptavidin was under 0.1; in test [5], under 1; in [6], under 1; in [7], under 1.

B10: C-013 (Fab format) (Fab, V domains shown)
VH: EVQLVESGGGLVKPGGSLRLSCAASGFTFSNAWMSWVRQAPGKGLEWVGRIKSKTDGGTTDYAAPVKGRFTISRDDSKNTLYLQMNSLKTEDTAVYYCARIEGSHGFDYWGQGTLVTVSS
VL: SYELTQPPSVSVSPGQTASITCSGDKLGDKYASWYQQKPGQSPVLVIYQDSKRPSGIPERFSGSNSGNTATLTISGTQAEDEADYYCASYLHTPKQFVFGGGTKLTVL
notes: Fab from E. coli lysate
In the case of B10, the A450 is under 0.1 in the test with Streptavidin and under 1 in test [6].

B11: C-018 (Fab format) (Fab, V domains shown)
VH: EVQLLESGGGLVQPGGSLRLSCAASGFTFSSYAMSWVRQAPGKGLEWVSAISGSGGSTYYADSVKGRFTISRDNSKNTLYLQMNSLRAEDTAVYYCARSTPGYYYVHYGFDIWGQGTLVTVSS
VL: B10 VL with A88Q, S89A, Y90W, L91S, H92T, T93S, P94T, K95H, Q96S, F97W
notes: Fab from E. coli lysate
For B11, the A450 was under 0.1 with Streptavidin, under 1 in test [5], under 1 in test [6] and under 1 in test [7].

B12: C-027 (Fab format) (Fab, V domains shown)
VH: QVQLVQSGAEVKKPGSSVKVSCKASGGTFSSYAISWVRQAPGQGLEWMGGIIPIFGTANYAQKFQGRVTITADESTSTAYMELSSLRSEDTAVYYCARENIPSYYDSSGRQDAFDIWGQGTMVTVSS
VL: B10 VL with A88Q, T93K, P94S, K95H, Q96G, F97A
notes: Fab from E. coli lysate
With B12, the A450 is under 0.1 in the test with Streptavidin, under 1 in test [6] and under 1 in test [7].

Values taken from patent US20220372138A1 (IOMX THERAPEUTICS, published 2022).
